In the Immune Epitope Database (IEDB) one finds IC50 data, which are given here for 24 sequences.

The IC50 is the concentration that inhibits the measured activity by half.

Common to all, as to assay: IEDB peptide-MHC binding, purified MHC/competitive/radioactivity; ≥ and ≤ were set here for values at or beyond the usual limits of such assays
The target in assay [1] is HLA-A*02:03.
Assay [2] deals with HLA-A*02:01.
Assay [3] has as its target HLA-A*68:02.
Assay [4] addresses HLA-A*02:02.
In assay [5] the target is HLA-A*02:06.
[6] abbreviates: source organism: Hepacivirus hominis.
[7] abbreviates: source organism: Vaccinia virus WR.
The mark [8] stands for this setting: source organism: Mammarenavirus guanaritoense.
Where [9] appears, read: source organism: Influenza A virus.
Setting [10] is: source organism: Mammarenavirus brazilense.
The mark [11] stands for this setting: source organism: Mammarenavirus whitewaterense.

Regarding TLLCVLAALV, the IC50 in assay [1] (source organism: SARS-CoV1) was 77 nM; in assay [2] (source organism: SARS-CoV1) it was 29 nM; in assay [3] (source organism: SARS-CoV1) it was 4390 nM; in assay [4] (source organism: SARS-CoV1) it was 4.6 nM; in assay [5] (source organism: SARS-CoV1), 65 nM.

As for TLLGCWSFV, the IC50 was 41 nM in assay [1] (setting [6]); 30 nM in assay [2] (setting [6]); 1780 nM in assay [3] (setting [6]); 87 nM in assay [4] (setting [6]); 134 nM in assay [5] (setting [6]).

In the case of TLLGLILFVL, the IC50 is 796 nM in assay [1] (setting [7]); 35 nM in assay [2] (setting [7]); 720 nM in assay [3] (setting [7]); 169 nM in assay [4] (setting [7]); 672 nM in assay [5] (setting [7]).

As for TLLIKTLSPA, the IC50 in assay [1] (setting [7]) was 1.2 nM; in assay [2] (setting [7]), 0.49 nM; in assay [3] (setting [7]) it was 1210 nM; in assay [4] (setting [7]), 1 nM; in assay [5] (setting [7]), 0.73 nM.

As to TLLNETAKV, the IC50 in assay [1] (setting [7]) was 83 nM; in assay [2] (setting [7]), 28 nM; in assay [3] (setting [7]) it was 1670 nM; in assay [4] (setting [7]), 246 nM; in assay [5] (setting [7]) it was 11 nM.

As for TLNTLITLI, the IC50 in assay [1] (setting [7]) turned out to be 0.6 nM; in assay [2] (setting [7]), 51 nM; in assay [3] (setting [7]), 472 nM; in assay [4] (setting [7]) it was 0.99 nM; in assay [5] (setting [7]) it was 941 nM.

TLNTLITLIL: the IC50 in assay [1] (setting [7]) is 7.1 nM; in assay [2] (setting [7]), 45 nM; in assay [3] (setting [7]), 1140 nM; in assay [4] (setting [7]) it was 150 nM; in assay [5] (setting [7]), 826 nM.

For the sequence TLPELNLSL, the IC50 came to 23 nM in assay [1] (setting [7]); 62 nM in assay [2] (setting [7]); 309 nM in assay [3] (setting [7]); 135 nM in assay [4] (setting [7]); 802 nM in assay [5] (setting [7]).

With TLVDLCFWS, the IC50 was 524 nM in assay [1] (setting [8]); 61 nM in assay [2] (setting [8]); 4880 nM in assay [3] (setting [8]); 58 nM in assay [4] (setting [8]); 134 nM in assay [5] (setting [8]).

For the sequence TLVKSGLTEV, the IC50 in assay [1] (setting [7]) stood at 2.9 nM; in assay [2] (setting [7]), 9.2 nM; in assay [3] (setting [7]) it was 2320 nM; in assay [4] (setting [7]) it was 64 nM; in assay [5] (setting [7]), 45 nM.

Consider TMADLVYAL, for which the IC50 came out at 16 nM in assay [1] (source organism: SARS-CoV1); 6.5 nM in assay [2] (source organism: SARS-CoV1); 20 nM in assay [3] (source organism: SARS-CoV1); 0.18 nM in assay [4] (source organism: SARS-CoV1); 47 nM in assay [5] (source organism: SARS-CoV1).

For the sequence TMSIYIAVA, the IC50 in assay [1] (setting [7]) amounted to 41 nM; in assay [2] (setting [7]), 136 nM; in assay [3] (setting [7]), 300 nM; in assay [4] (setting [7]), 81 nM; in assay [5] (setting [7]), 786 nM.

With TQWSLFFFV, the IC50 in assay [1] (source organism: SARS-CoV1) came out at 540 nM; in assay [2] (source organism: SARS-CoV1), 0.77 nM; in assay [3] (source organism: SARS-CoV1) it was 104 nM; in assay [4] (source organism: SARS-CoV1), 80 nM; in assay [5] (source organism: SARS-CoV1), 0.81 nM.

As for TSFFYRYGFV, the IC50 worked out at 451 nM in assay [1] (setting [9]); 1100 nM in assay [2] (setting [9]); 0.0096 nM in assay [3] (setting [9]); 1100 nM in assay [4] (setting [9]); 851 nM in assay [5] (setting [9]).

Regarding TSISGVLWTV, the IC50 in assay [1] (setting [6]) was 27 nM; in assay [2] (setting [6]), 26 nM; in assay [3] (setting [6]) it was 2.2 nM; in assay [4] (setting [6]) it was 8.1 nM; in assay [5] (setting [6]) it was 82 nM.

In the case of TSLGLLYTV, the IC50 worked out at 405 nM in assay [1] (setting [10]); 115 nM in assay [2] (setting [10]); 13 nM in assay [3] (setting [10]); 934 nM in assay [4] (setting [10]); 4.2 nM in assay [5] (setting [10]).

Turning to TSVDLNAPV, the IC50 in assay [1] (setting [8]) is 841 nM; in assay [2] (setting [8]), 464 nM; in assay [3] (setting [8]) it was 0.26 nM; in assay [4] (setting [8]), 65 nM; in assay [5] (setting [8]), 26 nM.

Take TTFITVLTSV: the IC50 turned out to be 16 nM in assay [1] (setting [7]); 271 nM in assay [2] (setting [7]); 15 nM in assay [3] (setting [7]); 1120 nM in assay [4] (setting [7]); 166 nM in assay [5] (setting [7]).

As for TTIGTIAGGV, the IC50 stood at 43 nM in assay [1] (setting [7]); 978 nM in assay [2] (setting [7]); 0.2 nM in assay [3] (setting [7]); 741 nM in assay [4] (setting [7]); 84 nM in assay [5] (setting [7]).

In the case of TTLLNETAKV, the IC50 in assay [1] (setting [7]) amounted to 0.17 nM; in assay [2] (setting [7]), 2880 nM; in assay [3] (setting [7]) it was 237 nM; in assay [4] (setting [7]) it was 1640 nM; in assay [5] (setting [7]), 1650 nM.

Turning to TVGMSIVCIV, the IC50 is 468 nM in assay [1] (setting [7]); 526 nM in assay [2] (setting [7]); 220 nM in assay [3] (setting [7]); 528 nM in assay [4] (setting [7]); 200 nM in assay [5] (setting [7]).

TVIKTLLEV: the IC50 is 53 nM in assay [1] (setting [11]); 276 nM in assay [2] (setting [11]); 2.8 nM in assay [3] (setting [11]); 2020 nM in assay [4] (setting [11]); 17 nM in assay [5] (setting [11]).

In the case of TVLTSVDIET, the IC50 in assay [1] (setting [7]) was found to be 915 nM; in assay [2] (setting [7]), 1260 nM; in assay [3] (setting [7]), 2990 nM; in assay [4] (setting [7]), 1720 nM; in assay [5] (setting [7]), 961 nM.

Take TVPTNDHIPV: the IC50 was 1890 nM in assay [1] (setting [7]); 1670 nM in assay [2] (setting [7]); 57 nM in assay [3] (setting [7]); 1680 nM in assay [4] (setting [7]); 515 nM in assay [5] (setting [7]).
